Substitutions are numbered along the chain they refer to.
T1: human EpCAM expressed on cells (CHO, Colo205, 293) (human, UniProt P16422 24-314)
T1 sequence (looked up): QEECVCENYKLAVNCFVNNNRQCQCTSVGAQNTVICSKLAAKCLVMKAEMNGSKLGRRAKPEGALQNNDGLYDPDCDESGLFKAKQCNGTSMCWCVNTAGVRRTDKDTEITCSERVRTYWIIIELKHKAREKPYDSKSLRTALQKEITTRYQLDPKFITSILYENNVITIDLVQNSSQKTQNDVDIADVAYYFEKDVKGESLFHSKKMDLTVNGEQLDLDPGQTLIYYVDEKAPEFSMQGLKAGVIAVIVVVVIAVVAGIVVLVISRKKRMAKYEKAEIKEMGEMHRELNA

T2: recombinant human EpCAM extracellular domain (human, UniProt P16422 24-265)
T2 construct: extracellular domain; Plate-coated antigen of the ELISAs; also called human EpCAM ECD; recombinant EpCAM antigen
T2 sequence (looked up): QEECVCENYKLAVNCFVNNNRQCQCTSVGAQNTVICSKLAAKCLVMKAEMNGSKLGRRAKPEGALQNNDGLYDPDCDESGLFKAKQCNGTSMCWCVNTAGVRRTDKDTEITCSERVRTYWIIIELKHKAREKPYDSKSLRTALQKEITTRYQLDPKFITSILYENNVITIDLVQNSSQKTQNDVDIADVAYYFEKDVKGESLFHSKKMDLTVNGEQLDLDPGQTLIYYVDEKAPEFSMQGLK

B1: BAP-105-06-01 conjugated to MMAE (antibody, V domains shown)
VH: EVQLVQSGAEVKKPGATVKISCKVSGYTFTSYWMHWIRQPPGKGLEWIGYIRPSTGYTEYNQKFKDRFTISRDNSKNTLYLQMNSLRAEDTAVYYCGRGDNWVGFANWGQGTLVTVSS
VL: EIVLTQSPDFQSVTPKEKVTITCSASSSISYMHWYQQKPGKAPKLLIYSTSKLASGVPDRFSGSGSGTDFTLKISRVEAEDVGVYYCHQWSTYETFGQGTKVEIK
modifications: antibody conjugated to MMAE; chain and residues of attachment not stated
B2: BAP-105-06-02 conjugated to MMAE (antibody, V domains shown)
VH: B1 VH
VL: B1 VL with K52S
modifications: antibody conjugated to MMAE; chain and residues of attachment not stated
B3: BAP-105.4-02-01 (antibody, V domains shown)
VH: B1 VH with I37V, P40A, K43Q, I48M
VL: EIVMTQSPATLSVSPGERATLSCSASSSISYMHWYQQKPGKAPKLLIYSTSNLASGVPSRFSGSGSGTEFTLTISSLQPDDFATYYCHQWSTYETFGQGTKVEIK
notes: Humanized
B4: BAP-105.4-01-02 (antibody, V domains shown)
VH: EVQLVQSGAEVKKPGESLRISCKGSGYTFTSYWMHWIRQSPSRGLEWLGYIRPSTGYTEYNQKFKDRVTISADKSISTAYLQWSSLKASDTAMYYCGRGDNWVGFANWGQGTLVTVSS
VL: B1 VL with K52N
notes: Humanized
B5: BAP-105-01-02 (antibody, V domains shown)
VH: QVQLQQSGAELAKPGASVKVSCKASGYTFTSYWMHWVKQRPGQGLEWIGDIRPSTGYTEYNQKFKDKATLTADKSSSTAYMQLSSLTFEDSAVYYCGRGDNWVGFANWGQGTLVTVSA
VL: QIVLTQSPAIMSASLGEEIALTCSASSSISYMHWYQQKSGTSPKLLIYSTSNLASGVPSRFSGSGSGTFYSLTISSVEAEDAADYFCHQWSTYHTFGSGTKLEIK
B6: BAP-105-01-04 (antibody, V domains shown)
VH: B5 VH with D50Y
VL: B5 VL with A54H
B7: BAP-105-01-05 (antibody, V domains shown)
VH: B5 VH with D50Y
VL: B5 VL with H88E
B8: BAP-105.4-03-02 (antibody, V domains shown)
VH: B4 VH
VL: EIVMTQSPATLSVSPGERATLSCSASSSISYMHWYQQKPGKAPKLLIYSTSNLASGIPPRFSGSGYGTDFTLTINNIESEDAAYYFCHQWSTYETFGQGTKVEIK
notes: Humanized

Assays:
[1] = target: T1, human EpCAM expressed on cells (CHO, …); experiment: cell-based or functional assay
[2] = target: T1, human EpCAM expressed on cells (CHO, …); experiment: FACS on Colo205 cells expressing human EpCAM, pH 7.4
Description: (§1) Binding activities of the humanized conditionally active anti-EpCAM antibodies to Colo205 cells expressing human EpCAM were measured by FACS at pH 6.0 and pH 7.4. […] The EC50 values for binding to the Colo205 cells expressing human EpCAM by the humanized conditionally active anti-EpCAM antibodies are summarized in Table 9.

[3] = target: T1, human EpCAM expressed on cells (CHO, …); experiment: FACS on 293 cells expressing human EpCAM, pH 6.0
Description: (§2) A similar FACS analysis was also carried out using 293 cells expressing human EpCAM. […] The EC50 values for binding to the 293 cells expressing human EpCAM by the humanized conditionally active anti-EpCAM antibodies are summarized in Table 10.

[4] = target: T2, recombinant human EpCAM extracellular …; experiment: ELISA, human EpCAM, pH 6.0
Description: (§3) The binding activities of the humanized conditionally active anti-EpCAM antibodies to human EpCAM were measured by ELISA, using the template antibody BAP-1-5-01-06, as a control. The EC50 values of the humanized conditionally active anti-EpCAM antibodies for binding to human EpCAM at pH 6.0 and pH 7.4 are summarized in Table 5.
(§4) The ELISA assay was performed using the following protocol: [0388] 1) Coat ELISA plates with 100 μL of 0.5 μg/mL (06_20_17 and 06_28_17 Experiments) or 1 μg/mL (07_06_17 and 07_11_17 Experiments) recombinant EpCAM antigen in carbonate-bicarbonate coating buffer [0389] 2) Cover plates with sealing film and incubate overnight at 4° C. [0390] 3) Decant plates and tap out residual liquid on a stack of paper towels [0391] […] 5) Add 200 μL of various pH incubation buffers to the wells according to the sample map.

[5] = target: T3, cyno EpCAM (recombinant, ELISA antigen) (cynomolgus monkey); experiment: ELISA with pH titration, cyno EpCAM
T3 construct: extracellular domain; also called cynomolgus EpCAM extracellular domain
T3 sequence (Q1WER1 24-265): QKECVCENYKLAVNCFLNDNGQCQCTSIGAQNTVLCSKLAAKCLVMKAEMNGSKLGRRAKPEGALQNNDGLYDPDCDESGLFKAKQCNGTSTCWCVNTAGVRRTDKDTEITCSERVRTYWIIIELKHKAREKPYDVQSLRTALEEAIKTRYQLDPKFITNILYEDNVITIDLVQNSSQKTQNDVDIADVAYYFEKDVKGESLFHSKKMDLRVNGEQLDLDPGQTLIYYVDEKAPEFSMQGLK
Description: The binding activities of the humanized conditionally active anti-EpCAM antibodies to cyno EpCAM with pH titration was similarly measured by ELISA.
as §4

[6] = target: T4, cyno EpCAM expressed on 293 cells (cynomolgus monkey); experiment: FACS on 293 cells expressing cyno EpCAM, pH 7.4
T4 construct: whole, on cells; also called 293 cells expressing cyno EpCAM
T4 sequence (Q1WER1 24-314): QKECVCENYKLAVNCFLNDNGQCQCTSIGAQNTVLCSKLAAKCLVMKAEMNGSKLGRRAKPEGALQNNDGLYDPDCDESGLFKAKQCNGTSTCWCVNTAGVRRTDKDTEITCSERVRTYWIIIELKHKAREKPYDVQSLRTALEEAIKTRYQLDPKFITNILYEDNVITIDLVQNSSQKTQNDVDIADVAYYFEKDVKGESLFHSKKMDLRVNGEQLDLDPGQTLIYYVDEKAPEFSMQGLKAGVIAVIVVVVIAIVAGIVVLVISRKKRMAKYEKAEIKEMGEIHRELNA
Description: (§5) A similar FACS analysis was also carried out using 293 cells expressing cyno EpCAM. […] The EC50 values for binding to the 293 cells expressing cyno EpCAM by the humanized conditionally active anti-EpCAM antibodies are summarized in Table 11.

[7] = target: T3, cyno EpCAM (recombinant, ELISA antigen); experiment: ELISA, cyno EpCAM, pH 6.0
Description: (§6) The binding activities of the humanized conditionally active anti-EpCAM antibodies to cyno EpCAM were similarly measured. The EC50 for binding to the cyno EpCAM at pH 6.0 and pH 7.4 for the humanized conditionally active anti-EpCAM antibodies are summarized in Table 7.
as §4

[8] = target: T1, human EpCAM expressed on cells (CHO, …); experiment: FACS on Colo205 cells expressing human EpCAM, pH 6.0
Description: as §1

[9] = target: T2, recombinant human EpCAM extracellular …; experiment: ELISA, human EpCAM, pH 7.4
Description: as §3, §4

[10] = target: T4, cyno EpCAM expressed on 293 cells; experiment: FACS on 293 cells expressing cyno EpCAM, pH 6.0
Description: as §5

[11] = target: T2, recombinant human EpCAM extracellular …; experiment: ELISA with pH titration, human EpCAM
Description: The binding activities of the humanized conditionally active anti-EpCAM antibodies to human EpCAM with pH titration were also measured by ELISA.
as §4

[12] = target: T1, human EpCAM expressed on cells (CHO, …); experiment: FACS on 293 cells expressing human EpCAM, pH 7.4
Description: as §2

[13] = target: T3, cyno EpCAM (recombinant, ELISA antigen); experiment: ELISA, cyno EpCAM, pH 7.4
Description: as §6, §4

[14] = target: T2, recombinant human EpCAM extracellular …; experiment: ELISA on human EpCAM, pH range 5.0 to 7.4

Row | Binder | IC50 for the in vitro killing of Colo205 cells, pH6.0 [1] | IC50 for the in vitro killing of Colo205 cells, pH7.4 [1] | ratio (pH7.4/pH6.0) of the IC50 for the in vitro killing of Colo205 cells [1] | EC50 [2] | EC50 [3] | EC50 [4] | pH inflection point [5] | EC50 [6] | EC50 [7] | EC50 [8] | EC50 [9] | EC50 [10] | pH inflection point [11] | EC50 [12] | EC50 [13] | binding result [14]
1 | B1 | 101 ng/mL | 550 ng/mL | 5.47 |  |  |  |  |  |  |  |  |  |  |  |  | 
2 | B2 | 146 ng/mL | 708 ng/mL | 4.86 |  |  |  |  |  |  |  |  |  |  |  |  | 
3 | B3 |  |  |  | 0.652 µg/mL | 0.215 µg/mL | 0.0154 µg/mL | 6.17 pH | 14.1 µg/mL | 0.674 µg/mL | 0.321 µg/mL | 114 µg/mL | 2.42 µg/mL | 6.6 pH | 0.238 µg/mL | 0.0359 µg/mL | 
4 | B4 |  |  |  | 0.397 µg/mL | 0.116 µg/mL | 0.0147 µg/mL | 6.27 pH | 6.36 µg/mL | 0.194 µg/mL | 0.273 µg/mL | 0.066 µg/mL | 1.26 µg/mL | 6.87 pH | 0.174 µg/mL | 0.208 µg/mL | 
5 | B5 |  |  |  |  |  |  |  |  |  |  |  |  |  |  |  | binds
6 | B6 |  |  |  |  |  |  |  |  |  |  |  |  |  |  |  | binds
7 | B7 |  |  |  |  |  |  |  |  |  |  |  |  |  |  |  | binds
8 | B8 |  |  |  | 0.67 µg/mL | 0.118 µg/mL | 0.0191 µg/mL | 6.35 pH | 4.46 µg/mL | 0.084 µg/mL | 0.497 µg/mL | 0.0487 µg/mL | 1.42 µg/mL | 6.82 pH | 0.159 µg/mL | 0.105 µg/mL | 

Source: patent US20260053904A1 (BIOATLA, published 2026)
